Measured values: patent US6653444 (Dana-Farber, dated 2003)

B1: murine B7 (ligand)
chain: VDEQLSKSVKDKVLLPCRYNSPHEDESEDRIYWQKHDKVVLSVIAGKLKVWPEYKNRTLYDNTTYSLIILGLVLSDRGTYSCVVQKKERGTYGVKHLALVKLSIKADFSTPNITESGNPSADTKRITCFASGGFPKPRFSWLENGRELPGINTTISQDPESELYTISSQLDFNTTRNHTIKCLIKYGDAHVSEDFTWEKPPEDPPDSKNTLVLFGAGFGAVITVVVIVVIIKCFCKHRSCFRRNEASRETNNSLTFGPEEALAEQTVFL
B2: human B7 B cell activation antigen (ligand)
chain: VIHVTKEVKEVATLSCGHNVSVEELAQTRIYWQKEKKMVLTMMSGDMNIWPEYKNRTIFDITNNLSIVILALRPSDEGTYECVVLKYEKDAFKREHLAEVTLSVKADFPTPSISDFEIPTSNIRRIICSTSGGFPEPHLSWLENGEELNAINTTVSQDPETELYAVSSKLDFNMTTNHSFMCLIKYGHLRVNQTFNWNTTKQEHFPDNLLPSWAITLISVNGIFVICCLTYCFAPRCRERRRNERLRRESVRPV

Biological target: CD28 (human, UniProt P10747 19-220)
Sequence (P10747 19-220): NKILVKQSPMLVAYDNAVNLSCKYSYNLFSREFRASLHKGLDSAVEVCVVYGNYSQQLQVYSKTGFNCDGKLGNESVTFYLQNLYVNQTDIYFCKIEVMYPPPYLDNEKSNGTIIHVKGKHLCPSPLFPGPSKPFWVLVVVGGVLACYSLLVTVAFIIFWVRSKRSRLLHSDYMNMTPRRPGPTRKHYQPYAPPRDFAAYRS
Experiment: cell-based or functional assay

Binder | fold enhancement of proliferation of PMA-treated human CD28+ T cells by fixed COS-mB7 cells [fold] | IL-2 secretion with CHO-B7 relative to anti-CD28 mAb, PMA-stimulated CD28+ T cells [%] | fold enhancement of proliferation of PMA-treated human CD28+ T cells by fixed COS-hB7 cells [fold] | fold increase in proliferation of PMA-treated human CD28+ T cells by fixed CHO-hB7 cells [fold] | proliferation by CHO-B7 relative to anti-CD28 mAb [% less]
B1 | 29 |  |  |  | 
B2 |  | ~45 | 30 | 51 | ~28
